In patent US20200299408A1 (Genentech, published 2020):

Target: T1, murine CD3 (mouse, UniProt P22646 22-189)
T1 construct: also called mouse CD3
Assay: Biacore, monovalent KD of the CD3 arm; CD3 antigen not named on the sheet (reactivity mouse)

T1 sequence (P22646 22-189): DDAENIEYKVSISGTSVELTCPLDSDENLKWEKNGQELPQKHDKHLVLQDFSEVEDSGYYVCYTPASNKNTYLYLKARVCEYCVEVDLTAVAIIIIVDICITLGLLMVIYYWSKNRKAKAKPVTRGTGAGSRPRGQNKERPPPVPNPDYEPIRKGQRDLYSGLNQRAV

Kd: 22 nM
B1: 2C11 (antibody, V domains shown)
VH: EVQLVESGGGLVQPGKSLKLSCEASGFTFSGYGMHWVRQAPGRGLESVAYITSSSINIKYADAVKGRFTVSRDNAKNLLFLQMNILKSEDTAMYYCARFDWDKNYWGQGTMVTVSS
VL: DIQMTQSPSSLPASLGDRVTINCQASQDISNYLNWYQQKPGKAPKLLIYYTNKLADGVPSRFSGSGSGRDSSFTISSLESEDIGSYYCQQYYNYPWTFGPGTKLEIK
